From patent US7276582 (JAPAN SCIENCE AND TECHNOLOGY AGENCY, dated 2007)

How the values were obtained:
[1] = biological target: T1, MD2 bait construct (mIP3R1: 1387-1647 amino acids) in pGBT9 (mouse, UniProt P11881 1387-1647); assay: yeast two-hybrid screen of a mouse brain cDNA library with MD2 as bait
T1 construct: also called IP3R1 modulatory domain bait 2; not shown: fusion partner encoded by the bait vector pGBT9 and primer-encoded linker

[2] = biological target: T2, GST (UniProt P08515 1-218 = GST, limits assumed); assay: GST pull-down from mouse cerebellar cytosolic fraction, Western blot with anti-CARP antibody
T2 construct: Control for the GST fusion proteins; its source is not described; also called GST alone; glutathione S-transferase
Description: Next, the inventors of the present application examined the interaction between CARP and IP_3R1 by means of a pull-down method in order to obtain further evidence for the interaction by biochemical methods. The inventors first developed expression system in Sf9 cells, and made IP_3R1 soluble by removing the channel domain. The soluble IP_3R1, designated GST-EL, covers both the ligand binding domain and modulatory domain (amino acids 1-2217 Of mIP_3R1) and has GST in its N terminus. Mouse cerebellar cytosolic fraction was incubated with GST-EL or GST, and binding of CARP to the recombinant proteins was analyzed by immunoblotting with anti-CARP antibody. The results are shown in photographs of FIG. 4 which are substituted for drawings.
Adult mouse cerebella were homogenized in 10 mM HEPES (pH 7.4), 320 mM Sucrose, 2 mM EDTA, 1 mM 2-mercaptoethanol, and protease inhibitors and the homogenate was centrifuged at 1,000× g for 10 min. The supernatant was centrifuged at 100,000× g for 60 min to obtain the cytosolic fraction (the supernatant) and the crude microsome (the pellet). The cytosolic fraction was added with 100 mM NaCl, and incubated with 20 μg of GST-EL or GST for 2 hours at 4° C. […] The eluted proteins were analyzed by Western blotting with anti-CARP antibody.

[3] = biological target: T1, MD2 bait construct (mIP3R1: 1387-1647 …); assay: yeast two-hybrid beta-gal assay
Procedure: To determine the respective interaction domains of CARP and IP_3R1, truncated mutants of both genes were prepared and analyzed using yeast two-hybrid system. […] Interactions between CARP mutants and MD2, CARP and IP_3R1 mutants were analyzed by β-gal assay by the yeast two-hybrid system. The prepared mutant and results of β-gal assay in the yeast two-hybrid system (n=3) are shown in FIG. 5. β-gal assay was evaluated by the time of blue colony appearance, i.e., blue colony appears within 30 min (+++), 2 h (++) and 8 hr (+).
Yeast two-hybrid assay in the following examples was conducted using MATCHJMAKER™ Two-Hybrid system according to the manufacturer's protocol (Clontech Laboratories Inc., Palo Alto, Calif., USA).

T1 sequence (P11881 1387-1647): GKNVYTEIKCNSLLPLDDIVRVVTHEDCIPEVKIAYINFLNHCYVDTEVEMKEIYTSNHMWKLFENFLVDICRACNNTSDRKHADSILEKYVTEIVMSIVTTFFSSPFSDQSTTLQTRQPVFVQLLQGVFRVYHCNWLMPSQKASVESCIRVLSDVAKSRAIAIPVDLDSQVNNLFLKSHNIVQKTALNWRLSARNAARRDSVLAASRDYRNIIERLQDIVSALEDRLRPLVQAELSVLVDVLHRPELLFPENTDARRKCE
T2 sequence (P08515 whole entry, the tested form may be a part): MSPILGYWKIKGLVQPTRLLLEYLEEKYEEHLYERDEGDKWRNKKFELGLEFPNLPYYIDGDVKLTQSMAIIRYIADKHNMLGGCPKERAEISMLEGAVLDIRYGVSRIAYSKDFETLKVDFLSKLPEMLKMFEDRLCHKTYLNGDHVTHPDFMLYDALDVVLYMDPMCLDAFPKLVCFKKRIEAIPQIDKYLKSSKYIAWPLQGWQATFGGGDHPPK

Binder | binding result [3] | further results
carbonic anhydrase-related protein (CARP), full-length, yeast two-hybrid prey in pGAD-GL (other, 13 positive clones from a mouse brain cDNA library; they contain different lengths of 5'UTR of CARP cDNA followed by a full-length coding region in frame; also called mouse CARP; not shown: fusion partner encoded by the library vector pGAD-GL (and in-frame 5'UTR of differing length); not described in the fili) MADLSFIEDAVAFPEKEEDEEEEEEEGVEWGYEEGVEWGLVFPDANGEYQSPINLNSREARYDPSLLDVRLSPNYVVCRDCEVTNDGHTIQVILKSKSVLSGGPLPGGQEFELYEVRFHWGRENQRGSEHTVNFKAFPMELHLIHWNSTLFGSIDEAVGKPHGIAIIALFVQIGKEHVGLKAVTEILQDIQYKGKSKTIPCFNPNTLLPDPLLRDYWVYEGSLTIPPCSEGVTWILFRYPLTISQMQIEEFRRLRTHVKGVELVEGCDGILGDNFRPTQPLSDRVIRAAFQ |  | binding result [1]: binds
CARP of the cytosolic fraction of mouse cerebellum (other, Endogenous protein in a tissue fraction, detected by Western blotting with anti-CARP polyclonal antibody; also called endogenous CARP) MADLSFIEDAVAFPEKEEDEEEEEEEGVEWGYEEGVEWGLVFPDANGEYQSPINLNSREARYDPSLLDVRLSPNYVVCRDCEVTNDGHTIQVILKSKSVLSGGPLPGGQEFELYEVRFHWGRENQRGSEHTVNFKAFPMELHLIHWNSTLFGSIDEAVGKPHGIAIIALFVQIGKEHVGLKAVTEILQDIQYKGKSKTIPCFNPNTLLPDPLLRDYWVYEGSLTIPPCSEGVTWILFRYPLTISQMQIEEFRRLRTHVKGVELVEGCDGILGDNFRPTQPLSDRVIRAAFQ |  | binding result [2]: no binding (tested: 20 µg of GST)
pGAD-GL-ΔC9 (CARP; 184-291 amino acids) (other, Yeast two-hybrid truncation construct; not shown: fusion partner encoded by vector pGAD-GL) TEILQDIQYKGKSKTIPCFNPNTLLPDPLLRDYWVYEGSLTIPPCSEGVTWILFRYPLTISQMQIEEFRRLRTHVKGVELVEGCDGILGDNFRPTQPLSDRVIRAAFQ | no binding | 
pGAD-GL-ΔC1 (CARP; 1-127 amino acids) (other, Yeast two-hybrid truncation construct; not shown: fusion partner encoded by vector pGAD-GL) MADLSFIEDAVAFPEKEEDEEEEEEEGVEWGYEEGVEWGLVFPDANGEYQSPINLNSREARYDPSLLDVRLSPNYVVCRDCEVTNDGHTIQVILKSKSVLSGGPLPGGQEFELYEVRFHWGRENQRG | no binding | 
pGAD-GL-ΔC2 (CARP; 1-147 amino acids) (other, Yeast two-hybrid truncation construct; not shown: fusion partner encoded by vector pGAD-GL) MADLSFIEDAVAFPEKEEDEEEEEEEGVEWGYEEGVEWGLVFPDANGEYQSPINLNSREARYDPSLLDVRLSPNYVVCRDCEVTNDGHTIQVILKSKSVLSGGPLPGGQEFELYEVRFHWGRENQRGSEHTVNFKAFPMELHLIHWN | no binding | 
pGAD-GL-ΔC3 (CARP; 1-170 amino acids) (other, Yeast two-hybrid truncation construct; not shown: fusion partner encoded by vector pGAD-GL) MADLSFIEDAVAFPEKEEDEEEEEEEGVEWGYEEGVEWGLVFPDANGEYQSPINLNSREARYDPSLLDVRLSPNYVVCRDCEVTNDGHTIQVILKSKSVLSGGPLPGGQEFELYEVRFHWGRENQRGSEHTVNFKAFPMELHLIHWNSTLFGSIDEAVGKPHGIAIIALF | no binding | 
pGAD-GL-ΔC4 (CARP; 1-180 amino acids) (other, Yeast two-hybrid truncation construct; not shown: fusion partner encoded by vector pGAD-GL) MADLSFIEDAVAFPEKEEDEEEEEEEGVEWGYEEGVEWGLVFPDANGEYQSPINLNSREARYDPSLLDVRLSPNYVVCRDCEVTNDGHTIQVILKSKSVLSGGPLPGGQEFELYEVRFHWGRENQRGSEHTVNFKAFPMELHLIHWNSTLFGSIDEAVGKPHGIAIIALFVQIGKEHVGL | no binding | 
pGAD-GL-ΔC5 (CARP; 1-217 amino acids) (other, Yeast two-hybrid truncation construct; not shown: fusion partner encoded by vector pGAD-GL) MADLSFIEDAVAFPEKEEDEEEEEEEGVEWGYEEGVEWGLVFPDANGEYQSPINLNSREARYDPSLLDVRLSPNYVVCRDCEVTNDGHTIQVILKSKSVLSGGPLPGGQEFELYEVRFHWGRENQRGSEHTVNFKAFPMELHLIHWNSTLFGSIDEAVGKPHGIAIIALFVQIGKEHVGLKAVTEILQDIQYKGKSKTIPCFNPNTLLPDPLLRDYW | no binding | 
pGAD-GL-ΔC6 (CARP; 1-234 amino acids) (other, Yeast two-hybrid truncation construct; not shown: fusion partner encoded by vector pGAD-GL) MADLSFIEDAVAFPEKEEDEEEEEEEGVEWGYEEGVEWGLVFPDANGEYQSPINLNSREARYDPSLLDVRLSPNYVVCRDCEVTNDGHTIQVILKSKSVLSGGPLPGGQEFELYEVRFHWGRENQRGSEHTVNFKAFPMELHLIHWNSTLFGSIDEAVGKPHGIAIIALFVQIGKEHVGLKAVTEILQDIQYKGKSKTIPCFNPNTLLPDPLLRDYWVYEGSLTIPPCSEGVTW | no binding | 
pGAD-GL-ΔC8 (CARP; 121-291 amino acids) (other, Yeast two-hybrid truncation construct; not shown: fusion partner encoded by vector pGAD-GL) GRENQRGSEHTVNFKAFPMELHLIHWNSTLFGSIDEAVGKPHGIAIIALFVQIGKEHVGLKAVTEILQDIQYKGKSKTIPCFNPNTLLPDPLLRDYWVYEGSLTIPPCSEGVTWILFRYPLTISQMQIEEFRRLRTHVKGVELVEGCDGILGDNFRPTQPLSDRVIRAAFQ | no binding | 
